The values that follow come from patent US20120100556A1, “Functional Expression of Higher Plant Nitrate Transporters in Pichia Pastoris” (priority 2007, published 2012).

The test system of series [1] is Pichia angusta Nrt transformants. As to the kind of experiment: Functional pre-screening chlorate assay (growth on minimal plate). Format: cell-based, Pichia pastoris. The settings on record: 0.5 mM chlorate, overnight at 30° C. Here is the method:
[…] These were incubated overnight at 30° C. The amount of growth was observed the next morning. […] This assay was repeated with various Nrt genes.

For another series, the system named is functional transformants. Description: Chlorate assay, functional transformants with pGAP promoter. Format: cell-based, Pichia pastoris. To be noted: as low as. As for the experimental part: A particularly effective way to screen for functional transformants is the use of a chlorate assay. It is known that Pichia pastoris cells with co-expressed Arabidopsis nitrate reductase and a yeast nitrate transporter driven under methanol-inducible AOX promoter are sensitive to 150 mM chlorate on solid medium. See, Unkles, et al., (2004) J. Biol. Chem., 279:28182-86. However, when a constitutive promoter rather than the commonly-used pAOX is used, the sensitivity of the functional transformants to chlorate increases substantially, and therefore the chlorate assay is much more sensitive. For example, when the preferred pGAP promoter is used, functional transformants are sensitive to chlorate concentrations much below 150 mM, such as by concentrations of as low as about 0.5 mM. Of course, the sensitivity level will vary depending on the rate of uptake of the particular Nrt integrated into the Pichia pastoris.

For series [2], the system named is Pichia pastoris cells with co-expressed Arabidopsis nitrate reductase and a yeast nitrate transporter. To be noted: 150 mM chlorate on solid medium; methanol-inducible AOX promoter; cited from earlier work.
The test system of series [3] is Arabidopsis Nrt1.1 transformants. As to the kind of experiment: Functional pre-screening chlorate assay (growth on minimal plate). Format: cell-based, Pichia pastoris. The settings on record: very small concentrations of chlorate, relative to Pichia angusta Nrt transformants. Here is the method:
5 μL of overnight YPD transformant cultures were spotted onto a minimal plate containing yeast nitrogen base, 10 mM proline, 2% glucose and 3-20 mM chlorate. These were incubated overnight at 30° C. The amount of growth was observed the next morning. […] This assay was repeated with various Nrt genes.

Series [4] deals with P. pastoris GS115-YNR1 transformants. Description: Nitrate transporter (NT) activity of barley two-component HATS transformants, nitrite assay. Format: cell-based, Pichia pastoris. The settings on record: 1 mM NaNO3, 2 hours at 30° C., pH 6.5; compared to negative controls GS115 wt and GS115-YNR1. The text has this: To test if P. pastoris was capable to identify a plant two-component HATS system, the following constructs containing HvNrt2.1 (SEQ ID NO: 5) or HvNar2.3 (SEQ ID NO: 6) were made and transformed into GS115-YNR1 line at AOX locus individually: pPIC3.5-pGAP-HvNrt2.1 or pPIC3.5-pGAP-HvNar2.3. To obtain transformants carrying HvNar2.3 and HvNrt2.1, GS115 wt was transformed with pPIC3.5-pGAPHvNar2.3-pGAPYNR at His 4 locus, then re-transformed with pPIC3.5-pGAP-HvNrt2.1 at AOX locus after the line was confirmed carrying both YNR1 and HvNar2.3 genes by PCR. The transformants were cultured in rich media (YPD) at 30° C. for overnight. Yeast cells were collected and washed with water twice then re-suspended in […], pH 6.5 and 1% glucose containing 1 mM NaNO3. After 2 hours incubation at 30° C., the supernatant was collected for nitrite assay with 1% Sulfanilamide, 0.01% N-(1-Naphthyl)ethylene-diamine dihydrochloride and 15% (v/v) H3PO4.

Series [5] concerns Pichia pastoris cell expressing the indicated nitrate transporter gene. Description: In vivo nitrate uptake assay (nitrite in medium by Griess reagent, Michaelis-Menten fit). The settings on record: transporter co-expressed with YNR1 in Pichia pastoris; 20 mM MOPS pH 6.5, 1% glucose; nitrate 0-30 mM. Format: cell-based. The text has this:
Pichia pastoris is a non-nitrate assimilating yeast. Because of this, any nitrate taken in via the Nrt is converted to nitrite by the co-expressed Nr and diffused or transported to the medium. This property permits the transformed Pichia pastoris to be used as an in vivo nitrate uptake assay, as the amount of nitrate taken into the cells is directly proportional to the nitrite later present in the growth medium. Nitrite may be quantitatively detected using Griess reagent or any other method known in the art. By way of the assay, various kinetic parameters of an Nrt may be quantified, such as Km and Vmax.
The assay is generally performed by incubating transformed Pichia pastoris on a medium containing nitrate for a set amount of time and assessing the amount of nitrite diffused to the medium after that set amount of time. The medium is preferably buffered. Most preferably, the medium has about 20 mM MOPS, pH 6.5, buffer and about 1% glucose, as this buffered medium allows the detection of linear uptake for up to several hours. The table below provides kinetic data for several Nrt proteins ascertained using the in vivo uptake assay herein described:
Pichia pastoris transformants were prepared in accordance with example 1 above and grown in YPD medium at 30° C. for 1 day. Cell pellets were washed twice with water then resuspended with a proper amount of uptake medium including nitrate. 24 different nitrate concentrations were tested, ranging from 0-30 mM. Optimal results were obtained with a buffered medium such as 20 mM MOPS, pH 6.5, 1% glucose, and the varying concentrations of nitrate. The aliquots were transferred into a 96-well plate; supernatants were mixed with Greiss reagent and monitored at 545 nm using a plate reader produced by Molecular Devices.
The raw data were fitted into proper kinetic equations, such as the Michaelis-Menton equation, using a program such as KaleidaGraph, available from Synergy Software, Reading Pa., USA. This in vivo uptake assay permits the kinetics of various nitrate transporters to be ascertained, such as those listed in Table 1 above.
On the technique in general: Nitrite, measured by Griess reagent, commonly stands in for NO production.

As for `[O-][Cl+2]([O-])O` [chlorate], in series [1], the “growth of transformants in chlorate” value is listed as “inhibited”. The “chlorate concentration to which functional transformants are sensitive” value in the series on functional transformants was “about 0.5 mM”. Besides, the sensitivity to chlorate entry in series [2] is given as “sensitive”. In addition, the “sensitivity of transformants to chlorate” value in series [3] is on record as “less sensitive”.
As for “HvNrt2.1: barley carrier-type protein Nrt2 of two-component HATS, SEQ ID NO: 5”, the NT activity result in series [4] is reported as “did not have NT activity”.

B1: HvNar2.3: barley associate protein Nar2 of two-component HATS, SEQ ID NO: 6 (protein)
chain: MARQGMVTALLLLVLAAGCCASAGAVAYLSKLPVTLDVTASPTPGQVLHAGEDVITVTWALNASQPAGKDADYKNVKVSLCYAPVSQKEREWRKTHDDLKKDKTCQFKITQQAYPGAGKVEYRVALDIPTATYYVRAYALDASGTQVAYGQTAPTAAFNVVSITGVTTSIKVAAGVFSAFSVASLAFFFFIEKRKKNN
modifications: Hordeum vulgare
As to B1, in series [4], the NT activity result was “did not have NT activity”.

B2: AtNrt1.1: higher plant nitrate transporter protein, GenBank accession L10357 (protein, UniProt Q05085 1-590, looked up)
Protein NRT1/ PTR FAMILY 6.3: MSLPETKSDDILLDAWDFQGRPADRSKTGGWASAAMILCIEAVERLTTLGIGVNLVTYLTGTMHLGNATAANTVTNFLGTSFMLCLLGGFIADTFLGRYLTIAIFAAIQATGVSILTLSTIIPGLRPPRCNPTTSSHCEQASGIQLTVLYLALYLTALGTGGVKASVSGFGSDQFDETEPKERSKMTYFFNRFFFCINVGSLLAVTVLVYVQDDVGRKWGYGICAFAIVLALSVFLAGTNRYRFKKLIGSPMTQVAAVIVAAWRNRKLELPADPSYLYDVDDIIAAEGSMKGKQKLPHTEQFRSLDKAAIRDQEAGVTSNVFNKWTLSTLTDVEEVKQIVRMLPIWATCILFWTVHAQLTTLSVAQSETLDRSIGSFEIPPASMAVFYVGGLLLTTAVYDRVAIRLCKKLFNYPHGLRPLQRIGLGLFFGSMAMAVAALVELKRLRTAHAHGPTVKTLPLGFYLLIPQYLIVGIGEALIYTGQLDFFLRECPKGMKGMSTGLLLSTLALGFFFSSVLVTIVEKFTGKAHPWIADDLNKGRLYNFYWLVAVLVALNFLIFLVFSKWYVYKEKRLAEVGIELDDEPSIPMGH
In general, Km refers to the substrate concentration at which the rate is half of its maximum. Consider B2, for which, in series [5], the Km was 360 µM and the “Vmax, μM of nitrate taken up in one minute by 50 μl Pichia pastoris cell” value (shortened to “Vmax, μM of nitrate taken up”) is given as 8.0 μM/m/50 μl cell.

B3: AtNrt1.3: higher plant nitrate transporter protein, GenBank accession AB019232 (protein, UniProt Q9LVE0 1-590, looked up)
Protein NRT1/ PTR FAMILY 6.4: MVHVSSSHGAKDGSEEAYDYRGNPPDKSKTGGWLGAGLILGSELSERICVMGISMNLVTYLVGDLHISSAKSATIVTNFMGTLNLLGLLGGFLADAKLGRYKMVAISASVTALGVLLLTVATTISSMRPPICDDFRRLHHQCIEANGHQLALLYVALYTIALGGGGIKSNVSGFGSDQFDTSDPKEEKQMIFFFNRFYFSISVGSLFAVIALVYVQDNVGRGWGYGISAATMVVAAIVLLCGTKRYRFKKPKGSPFTTIWRVGFLAWKKRKESYPAHPSLLNGYDNTTVPHTEMLKCLDKAAISKNESSPSSKDFEEKDPWIVSTVTQVEEVKLVMKLVPIWATNILFWTIYSQMTTFTVEQATFMDRKLGSFTVPAGSYSAFLILTILLFTSLNERVFVPLTRRLTKKPQGITSLQRIGVGLVFSMAAMAVAAVIENARREAAVNNDKKISAFWLVPQYFLVGAGEAFAYVGQLEFFIREAPERMKSMSTGLFLSTISMGFFVSSLLVSLVDRVTDKSWLRSNLNKARLNYFYWLLVVLGALNFLIFIVFAMKHQYKADVITVVVTDDDSVEKEVTKKESSEFELKDIP
Take B3: in series [5], the Michaelis-Menten constant (Km) was determined as 7400 µM and the “Vmax, μM of nitrate taken up” value stood at 14.4 μM/m/50 μl cell.

B4: AtNrt1.4: higher plant nitrate transporter protein, GenBank accession AC003105 (protein, UniProt Q9SZY4 1-577, looked up)
Protein NRT1/ PTR FAMILY 6.2: MESKGSWTVADAVDYKGRPADKSKTGGWITAALILGIEVVERLSTMGIAVNLVTYLMETMHLPSSTSANIVTDFMGTSFLLCLLGGFLADSFLGRFKTIGIFSTIQALGTGALAVATKLPELRPPTCHHGEACIPATAFQMTILYVSLYLIALGTGGLKSSISGFGSDQFDDKDPKEKAHMAFFFNRFFFFISMGTLLAVTVLVYMQDEVGRSWAYGICTVSMAIAIVIFLCGTKRYRYKKSQGSPVVQIFQVIAAAFRKRKMELPQSIVYLYEDNPEGIRIEHTDQFHLLDKAAIVAEGDFEQTLDGVAIPNPWKLSSVTKVEEVKMMVRLLPIWATTIIFWTTYAQMITFSVEQASTMRRNIGSFKIPAGSLTVFFVAAILITLAVYDRAIMPFWKKWKGKPGFSSLQRIAIGLVLSTAGMAAAALVEQKRLSVAKSSSQKTLPISVFLLVPQFFLVGAGEAFIYTGQLDFFITQSPKGMKTMSTGLFLTTLSLGFFVSSFLVSIVKRVTSTSTDVGWLADNINHGRLDYFYWLLVILSGINFVVYIICALWFKPTKGKDSVEKENGKGFSVEDC
Regarding B4, in series [5], the Michaelis-Menten constant (Km) was 610 µM and the “Vmax, μM of nitrate taken up” value came to 4.0 μM/m/50 μl cell.
